T1: MPK4 as prey (AD fusion) (Arabidopsis thaliana, UniProt Q39024 1-376, limits assumed)
T1 construct: Used in the directed two-hybrid assay with MKS1 as bait; also called MPK4 prey
T1 sequence (looked up): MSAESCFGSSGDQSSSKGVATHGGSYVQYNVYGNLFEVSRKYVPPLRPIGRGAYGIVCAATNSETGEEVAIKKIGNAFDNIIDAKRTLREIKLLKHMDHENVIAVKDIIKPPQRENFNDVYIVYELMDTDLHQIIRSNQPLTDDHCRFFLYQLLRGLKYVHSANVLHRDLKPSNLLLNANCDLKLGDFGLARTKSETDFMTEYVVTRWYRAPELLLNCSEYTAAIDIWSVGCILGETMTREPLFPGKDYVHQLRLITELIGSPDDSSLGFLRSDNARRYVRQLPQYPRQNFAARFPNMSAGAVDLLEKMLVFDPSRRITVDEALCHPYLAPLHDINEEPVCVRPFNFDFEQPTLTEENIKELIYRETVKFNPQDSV

T2: recombinant, full-length histidine-tagged MKS1
T2 chain: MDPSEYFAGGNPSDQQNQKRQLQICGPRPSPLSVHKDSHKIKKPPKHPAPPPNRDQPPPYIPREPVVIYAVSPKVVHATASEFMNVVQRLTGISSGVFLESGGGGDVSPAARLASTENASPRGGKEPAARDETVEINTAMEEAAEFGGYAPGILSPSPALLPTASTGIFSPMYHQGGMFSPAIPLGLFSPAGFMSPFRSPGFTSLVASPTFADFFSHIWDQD

T3: Pep22, synthetic peptide corresponding to amino acid residues 13-35 of MKS1
T3 chain: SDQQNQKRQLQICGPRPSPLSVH

T4: histidine-tagged C3-MKS1 truncation (amino acids 1-73)
T4 chain: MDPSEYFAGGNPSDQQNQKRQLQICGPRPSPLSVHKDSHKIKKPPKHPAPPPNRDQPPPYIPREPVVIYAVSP

T5: histidine-tagged C1-MKS1 truncation (amino acids 1-196)
T5 chain: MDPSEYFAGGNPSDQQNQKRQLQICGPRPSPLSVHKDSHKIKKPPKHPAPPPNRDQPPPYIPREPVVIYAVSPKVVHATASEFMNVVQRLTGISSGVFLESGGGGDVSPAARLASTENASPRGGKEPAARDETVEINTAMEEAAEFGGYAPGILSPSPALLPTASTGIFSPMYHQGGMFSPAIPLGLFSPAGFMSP

T6: histidine-tagged C2-MKS1 truncation (amino acids 1-123)
T6 chain: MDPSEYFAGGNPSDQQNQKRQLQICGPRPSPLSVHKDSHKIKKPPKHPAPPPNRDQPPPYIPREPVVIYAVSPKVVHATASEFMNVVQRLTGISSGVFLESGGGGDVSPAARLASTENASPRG

T7: Flg22 peptide
T7 chain: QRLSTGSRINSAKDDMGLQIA

T8: MPK3 as prey (AD fusion) (UniProt Q39023 1-370)
T8 sequence (looked up): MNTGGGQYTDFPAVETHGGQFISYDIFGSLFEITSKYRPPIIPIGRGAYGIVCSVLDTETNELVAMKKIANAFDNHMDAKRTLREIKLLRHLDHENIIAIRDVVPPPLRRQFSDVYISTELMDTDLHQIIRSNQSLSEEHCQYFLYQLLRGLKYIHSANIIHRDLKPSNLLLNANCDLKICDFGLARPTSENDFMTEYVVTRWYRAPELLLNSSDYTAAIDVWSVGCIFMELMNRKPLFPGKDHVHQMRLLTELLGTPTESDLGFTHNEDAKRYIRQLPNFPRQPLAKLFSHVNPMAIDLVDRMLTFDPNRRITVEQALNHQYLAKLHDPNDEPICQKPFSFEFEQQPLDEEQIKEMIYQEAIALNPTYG

T9: MPK17 as prey (AD fusion) (UniProt Q84M93 1-486, limits assumed)
T9 sequence (looked up): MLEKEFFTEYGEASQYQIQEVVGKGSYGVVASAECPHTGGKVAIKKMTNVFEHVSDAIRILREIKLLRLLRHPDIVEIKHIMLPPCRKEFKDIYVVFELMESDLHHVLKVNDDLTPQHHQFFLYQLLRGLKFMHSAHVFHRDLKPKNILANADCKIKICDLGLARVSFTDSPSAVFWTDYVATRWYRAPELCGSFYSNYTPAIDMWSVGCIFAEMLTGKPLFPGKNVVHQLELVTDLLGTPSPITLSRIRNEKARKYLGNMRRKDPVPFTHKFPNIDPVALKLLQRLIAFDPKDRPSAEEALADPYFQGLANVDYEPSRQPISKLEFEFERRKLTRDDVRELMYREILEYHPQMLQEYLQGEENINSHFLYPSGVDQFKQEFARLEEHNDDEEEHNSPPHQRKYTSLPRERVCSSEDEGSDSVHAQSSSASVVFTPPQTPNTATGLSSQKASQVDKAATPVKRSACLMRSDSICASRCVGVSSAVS

B1: WRKY25 as prey (AD fusion) (other, Arabidopsis thaliana, UniProt O22921 1-393, looked up, not shown: large carriers)
chain: MSSTSFTDLLGSSGVDCYEDDEDLRVSGSSFGGYYPERTGSGLPKFKTAQPPPLPISQSSHNFTFSDYLDSPLLLSSSHSLISPTTGTFPLQGFNGTTNNHSDFPWQLQSQPSNASSALQETYGVQDHEKKQEMIPNEIATQNNNQSFGTERQIKIPAYMVSRNSNDGYGWRKYGQKQVKKSENPRSYFKCTYPDCVSKKIVETASDGQITEIIYKGGHNHPKPEFTKRPSQSSLPSSVNGRRLFNPASVVSEPHDQSENSSISFDYSDLEQKSFKSEYGEIDEEEEQPEMKRMKREGEDEGMSIEVSKGVKEPRVVVQTISDIDVLIDGFRWRKYGQKVVKGNTNPRSYYKCTFQGCGVKKQVERSAADERAVLTTYEGRHNHDIPTALRRS
notes: Library clone; also called transcription factor WRKY25
B2: WRKY29 as prey (AD fusion) (other, UniProt Q9SUS1 1-304, looked up, not shown: large carriers)
chain: MDEGDLEAIVRGYSGSGDAFSGESSGTFSPSFCLPMETSSFYEPEMETSGLDELGELYKPFYPFSTQTILTSSVSLPEDSKPFRDDKKQRSHGCLLSNGSRADHIRISESKSKKSKKNQQKRVVEQVKEENLLSDAWAWRKYGQKPIKGSPYPRSYYRCSSSKGCLARKQVERNPQNPEKFTITYTNEHNHELPTRRNSLAGSTRAKTSQPKPTLTKKSEKEVVSSPTSNPMIPSADESSVAVQEMSVAETSTHQAAGAIEGRRLSNGLPSDLMSGSGTFPSFTGDFDELLNSQEFFSGYLWNY
notes: mature
B3: MPK5 as prey (AD fusion) (other, UniProt Q39025 127-376, looked up, not shown: large carriers)
chain: MDTDLHQIIRSNQSLNDDHCQYFLYQILRGLKYIHSANVLHRDLKPSNLLLNSNCDLKITDFGLARTTSETEYMTEYVVTRWYRAPELLLNSSEYTSAIDVWSVGCIFAEIMTREPLFPGKDYVHQLKLITELIGSPDGASLEFLRSANARKYVKELPKFPRQNFSARFPSMNSTAIDLLEKMLVFDPVKRITVEEALCYPYLSALHDLNDEPVCSNHFSFHFEDPSSTEEEIKELVWLESVKFNPLPSI
B4: C2-MKS1 truncation (amino acids 1-123), two-hybrid construct (other, not shown: large carriers)
chain: T6 chain
B5: HA (influenza hemagglutin antigen)-tagged MPK4 (protein)
chain: YPYDVPDYAYPYDVPDYAYPYDVPDYAYPYDVPDYAYPYDVPDYAYPYDVPDYAMSAESCFGSSGDQSSSKGVATHGGSYVQYNVYGNLFEVSRKYVPPLRPIGRGAYGIVCAATNSETGEEVAIKKIGNAFDNIIDAKRTLREIKLLKHMDHENVIAVKDIIKPPQRENFNDVYIVYELMDTDLHQIIRSNQPLTDDHCRFFLYQLLRGLKYVHSANVLHRDLKPSNLLLNANCDLKLGDFGLARTKSETDFMTEYVVTRWYRAPELLLNCSEYTAAIDIWSVGCILGETMTREPLFPGKDYVHQLRLITELIGSPDDSSLGFLRSDNARRYVRQLPQYPRQNFAARFPNMSAGAVDLLEKMLVFDPSRRITVDEALCHPYLAPLHDINEEPVCVRPFNFDFEQPTLTEENIKELIYRETVKFNPQDSV
B6: MKS1 as bait (BD fusion), MKS1-BD (other)
chain: MKLLSSIEQACDICRLKKLKCSKEKPKCAKCLKNNWECRYSPKTKRSPLTRAHLTEVESRLERLEQLFLLIFPREDLDMILKMDSLQDIKALLTGLFVQDNVNKDAVTDRLASVETDMPLTLRQHRISATSSSEESSNKGQRQLTVSMDPSEYFAGGNPSDQQNQKRQLQICGPRPSPLSVHKDSHKIKKPPKHPAPPPNRDQPPPYIPREPVVIYAVSPKVVHATASEFMNVVQRLTGISSGVFLESGGGGDVSPAARLASTENASPRGGKEPAARDETVEINTAMEEAAEFGGYAPGILSPSPALLPTASTGIFSPMYHQGGMFSPAIPLGLFSPAGFMSPFRSPGFTSLVASPTFADFFSHIWDQD
notes: also called MKS1 bait; MAP Kinase Substrate 1
B7: N1-MKS1, N-terminal truncated form (amino acids 55-222), two-hybrid construct (other)
chain: DQPPPYIPREPVVIYAVSPKVVHATASEFMNVVQRLTGISSGVFLESGGGGDVSPAARLASTENASPRGGKEPAARDETVEINTAMEEAAEFGGYAPGILSPSPALLPTASTGIFSPMYHQGGMFSPAIPLGLFSPAGFMSPFRSPGFTSLVASPTFADFFSHIWDQD
notes: also called N-terminally deleted MKS1; not shown: GAL4 BD or AD fusion partner
B8: C1-MKS1 truncation (amino acids 1-196), two-hybrid construct (other, not shown: large carriers)
chain: T5 chain
B9: C3-MKS1 truncation (amino acids 1-73), two-hybrid construct (other, not shown: large carriers)
chain: T4 chain

Experiments:
MPK4 as bait (BD fusion) = biological target: T10, MPK4 as bait (BD fusion) (Arabidopsis thaliana, UniProt P04386 1-147; Q39024 1-376); assay: directed yeast two-hybrid assay
T10 construct: also called MPK4 bait
Protocol: (§1) Yeast cells in the two hybrid screen were selected on the indicated nutrient depleted growth-media (-Histidine; -Leucine; -Adenine-Tryptophan) and assayed for β-galactosidase (β-gal) reporter gene activity.
(§2) To test the specificity of the MAP kinase interaction, the interaction of MKS1 with other plant MAP kinases was tested in the yeast two-hybrid assay.
(§3) The specificity of MKS1 interaction with WRKY transcription factors was examined in directed yeast two-hybrid assays with WRKY26 and WRKY29.

[1] = biological target: B6; assay: directed yeast two-hybrid assay
Protocol: as §1, §2, §3

MPK4 as prey (AD fusion) = biological target: T1, MPK4 as prey (AD fusion); assay: yeast two-hybrid assay
[2] = biological target: T2, recombinant, full-length …
[3] = biological target: T3, Pep22, synthetic peptide corresponding …
[4] = biological target: T4, histidine-tagged C3-MKS1 truncation …
[5] = biological target: T5, histidine-tagged C1-MKS1 truncation …
[6] = biological target: T6, histidine-tagged C2-MKS1 truncation …
Flg22 peptide = biological target: T7, Flg22 peptide
MPK6 as prey (AD fusion) = MPK6 as prey (AD fusion) (UniProt Q39026 1-395); assay: directed yeast two-hybrid assay
Sequence of MPK6 as prey (AD fusion) (Q39026 whole entry, the tested form may be a part): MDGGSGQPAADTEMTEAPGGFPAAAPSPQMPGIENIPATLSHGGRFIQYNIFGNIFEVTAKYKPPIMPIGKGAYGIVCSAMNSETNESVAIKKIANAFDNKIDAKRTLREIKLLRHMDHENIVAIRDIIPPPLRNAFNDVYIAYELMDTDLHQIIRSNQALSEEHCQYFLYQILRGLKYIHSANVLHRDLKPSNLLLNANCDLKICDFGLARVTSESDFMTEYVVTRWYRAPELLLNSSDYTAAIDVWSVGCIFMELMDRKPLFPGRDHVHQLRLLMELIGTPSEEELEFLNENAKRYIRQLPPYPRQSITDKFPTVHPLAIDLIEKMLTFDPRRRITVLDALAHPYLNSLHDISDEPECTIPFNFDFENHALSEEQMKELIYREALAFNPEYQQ
Protocol: as §1, §2, §3

MPK3 as prey (AD fusion) = biological target: T8, MPK3 as prey (AD fusion); assay: directed yeast two-hybrid assay
Protocol: as §1, §2, §3

[7] = biological target: T9, MPK17 as prey (AD fusion); assay: directed yeast two-hybrid assay
Protocol: as §1, §2, §3

[8] = biological target: T11, WRKY33 as prey (AD fusion) (Arabidopsis thaliana, UniProt Q8S8P5 332-519, limits assumed); assay: yeast two-hybrid assay
T11 construct: The library hits were five different truncated WRKY33 proteins; also called W33; transcription factor WRKY33
T11 sequence (Q8S8P5 332-519 limits assumed): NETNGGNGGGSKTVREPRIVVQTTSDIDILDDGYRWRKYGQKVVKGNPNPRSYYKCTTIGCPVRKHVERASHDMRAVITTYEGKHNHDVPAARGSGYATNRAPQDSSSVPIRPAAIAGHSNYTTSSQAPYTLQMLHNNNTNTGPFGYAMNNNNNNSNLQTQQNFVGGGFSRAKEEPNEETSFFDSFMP

## B1
MPK4 as bait (BD fusion)
  binding result: no binding

## B2
[1]
  binding result: no binding

## B3
[1]
  binding result: no binding

## B4
MPK4 as prey (AD fusion)
  binding result: binds

## B5
[2]
  in vitro phosphorylation assay (32P-γ-ATP, SDS-PAGE, phosphorimager): HA-tagged MPK4, immunoprecipitated from Arabidopsis plants, is shown to in vitro phosphorylate MKS1 as efficiently as myelin basic protein
[3]
  competition of MKS1 phosphorylation by MPK4 in vitro: Pep22 is an efficient competitor of full-length MKS1 for phosphorylation by MPK4, when added to the in vitro assay in a molar ratio of 1:1 (Pep22:MKS1)
[4]
  in vitro phosphorylation assay (32P-γ-ATP, SDS-PAGE, phosphorimager): HA-tagged MPK4 readily phosphorylated both full-length and C-terminal MKS1 truncations, including C3 MKS1
[5]
  in vitro phosphorylation assay (32P-γ-ATP, SDS-PAGE, phosphorimager): HA-tagged MPK4 readily phosphorylated both full-length and C-terminal MKS1 truncations, including C3 MKS1
[6]
  in vitro phosphorylation assay (32P-γ-ATP, SDS-PAGE, phosphorimager): HA-tagged MPK4 readily phosphorylated both full-length and C-terminal MKS1 truncations, including C3 MKS1
Flg22 peptide
  competition of MKS1 phosphorylation by MPK4 in vitro: the FIG. 22 peptide did not compete MKS1 phosphorylation

## B6
MPK6 as prey (AD fusion)
  binding result: no binding
MPK3 as prey (AD fusion)
  binding result: no binding
[7]
  binding result: no binding

## B7
MPK4 as prey (AD fusion)
  binding result: no binding

## B8
MPK4 as prey (AD fusion)
  binding result: binds

## B9
MPK4 as prey (AD fusion)
  binding result: binds
[8]
  binding result: no binding
